# Assay results published in article PMC10786891, “Massively parallel profiling of RNA-targeting CRISPR-Cas13d”.
# Changes are numbered by the printed parent chain. In names and notes the source's numbering stands.
# T1: EsCas13d, nuclease-dead (Eubacterium siraeum, UniProt B0MS50, R295A;H300A;R849A;H854A)
# T1 sequence: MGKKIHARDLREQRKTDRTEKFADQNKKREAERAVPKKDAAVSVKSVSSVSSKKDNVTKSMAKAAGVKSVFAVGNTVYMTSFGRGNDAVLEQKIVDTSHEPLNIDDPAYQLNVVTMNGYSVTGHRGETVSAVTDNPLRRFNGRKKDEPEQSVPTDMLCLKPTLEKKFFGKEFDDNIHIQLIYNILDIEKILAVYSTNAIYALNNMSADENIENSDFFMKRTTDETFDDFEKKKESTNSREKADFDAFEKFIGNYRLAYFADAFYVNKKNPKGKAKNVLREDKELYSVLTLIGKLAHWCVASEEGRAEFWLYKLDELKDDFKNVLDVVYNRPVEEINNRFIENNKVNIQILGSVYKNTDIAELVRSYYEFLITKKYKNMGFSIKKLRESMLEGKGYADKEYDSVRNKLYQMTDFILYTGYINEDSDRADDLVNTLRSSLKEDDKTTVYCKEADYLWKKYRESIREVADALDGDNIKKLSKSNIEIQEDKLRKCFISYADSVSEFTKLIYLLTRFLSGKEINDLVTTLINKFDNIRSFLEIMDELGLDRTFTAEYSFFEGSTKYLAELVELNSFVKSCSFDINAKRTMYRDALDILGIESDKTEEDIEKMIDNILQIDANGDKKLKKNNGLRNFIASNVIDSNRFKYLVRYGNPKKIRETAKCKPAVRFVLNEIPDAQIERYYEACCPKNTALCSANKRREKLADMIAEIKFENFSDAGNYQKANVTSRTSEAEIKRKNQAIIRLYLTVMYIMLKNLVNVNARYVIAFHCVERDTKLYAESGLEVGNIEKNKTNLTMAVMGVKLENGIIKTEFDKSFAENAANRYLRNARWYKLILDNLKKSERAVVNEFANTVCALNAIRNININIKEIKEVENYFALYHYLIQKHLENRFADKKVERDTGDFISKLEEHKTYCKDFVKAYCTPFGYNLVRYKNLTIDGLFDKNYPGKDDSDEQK
# B1: target 1 U10A,G12C (mixed)
# RNA 1: CACCCGUGCAAAAAUGCAGGGGUCUAAAACUGAGCGGAUAACCUCUCUAUGG
# RNA 2: GGGAAUGGAUCCACAUCUACGAAUUCGUACCAUAGAGAGCUAAUCCGCUCACCGAGAUCGGAAGAGCACACGU
# B2: target 1 insG 3' of 1,insU 3' of 1 (mixed)
# RNA 1: B1 RNA 1
# RNA 2: GGGAAUGGAUCCACAUCUACGAAUUCGUACCAUAGAGAGGUUAUCCGCUCAGUCCGAGAUCGGAAGAGCACACGU
# B3: target 1 insG 3' of 2,insG 3' of 2 (mixed)
# RNA 1: B1 RNA 1
# RNA 2: B2 RNA 2 with A51G, U53A
# B4: target 2 MT 5'PFS GAA 3'PFS UGC (mixed)
# RNA 1: CACCCGUGCAAAAUUGCAGGGGUCUAAAACCUUCUCCAAAUUGUUUCAUCCU
# RNA 2: GGGAAUGGAUCCACAUCUACGAAUUCGAAAGGAUGAAACAAUUUGGAGAAGUGCAGAUCGGAAGAGCACACGU
# B5: target 2 MT 5'PFS GCU 3'PFS UCG (mixed)
# RNA 1: B4 RNA 1
# RNA 2: B4 RNA 2 with A28C, A29U, G53C, C54G
# B6: target 2 MT 5'PFS GGC 3'PFS UGU (mixed)
# RNA 1: B4 RNA 1
# RNA 2: B4 RNA 2 with A28G, A29C, C54U
# B7: target 2 MT 5'PFS GUC 3'PFS UUU (mixed)
# RNA 1: B4 RNA 1
# RNA 2: B4 RNA 2 with A28U, A29C, G53U, C54U
# B8: target 2 MT 5'PFS UUA 3'PFS UAG (mixed)
# RNA 1: B4 RNA 1
# RNA 2: B4 RNA 2 with G27U, A28U, G53A, C54G
# B9: target 2 MT 5'PFS AGA 3'PFS UUU (mixed)
# RNA 1: B4 RNA 1
# RNA 2: B4 RNA 2 with G27A, A28G, G53U, C54U
# B10: target 2 MT 5'PFS AUU 3'PFS UUA (mixed)
# RNA 1: B4 RNA 1
# RNA 2: B4 RNA 2 with G27A, A28U, A29U, G53U, C54A
# B11: target 2 MT 5'PFS UUA 3'PFS CUC (mixed)
# RNA 1: B4 RNA 1
# RNA 2: B4 RNA 2 with G27U, A28U, U52C, G53U
# B12: target 2 MT 5'PFS AGU 3'PFS CUC (mixed)
# RNA 1: B4 RNA 1
# RNA 2: B4 RNA 2 with G27A, A28G, A29U, U52C, G53U
# B13: target 2 MT 5'PFS UUA 3'PFS CUG (mixed)
# RNA 1: B4 RNA 1
# RNA 2: B4 RNA 2 with G27U, A28U, U52C, G53U, C54G
# B14: target 2 MT 5'PFS AUA 3'PFS CGC (mixed)
# RNA 1: B4 RNA 1
# RNA 2: B4 RNA 2 with G27A, A28U, U52C
# B15: target 2 MT 5'PFS AGU 3'PFS CUG (mixed)
# RNA 1: B4 RNA 1
# RNA 2: B4 RNA 2 with G27A, A28G, A29U, U52C, G53U, C54G
# B16: target 2 MT 5'PFS UUA 3'PFS CUU (mixed)
# RNA 1: B4 RNA 1
# RNA 2: B4 RNA 2 with G27U, A28U, U52C, G53U, C54U
# B17: target 2 MT 5'PFS UUA 3'PFS CUA (mixed)
# RNA 1: B4 RNA 1
# RNA 2: B4 RNA 2 with G27U, A28U, U52C, G53U, C54A
# B18: target 2 MT 5'PFS CAU 3'PFS UGC (mixed)
# RNA 1: B4 RNA 1
# RNA 2: B4 RNA 2 with G27C, A29U
# B19: target 2 MT 5'PFS AUA 3'PFS CGA (mixed)
# RNA 1: B4 RNA 1
# RNA 2: B4 RNA 2 with G27A, A28U, U52C, C54A
# B20: target 2 MT 5'PFS UUA 3'PFS UAU (mixed)
# RNA 1: B4 RNA 1
# RNA 2: B4 RNA 2 with G27U, A28U, G53A, C54U
# B21: target 2 MT 5'PFS AGA 3'PFS UUC (mixed)
# RNA 1: B4 RNA 1
# RNA 2: B4 RNA 2 with G27A, A28G, G53U
# B22: target 2 MT 5'PFS UUA 3'PFS UAC (mixed)
# RNA 1: B4 RNA 1
# RNA 2: B4 RNA 2 with G27U, A28U, G53A
# B23: target 2 MT 5'PFS CAU 3'PFS UGA (mixed)
# RNA 1: B4 RNA 1
# RNA 2: B4 RNA 2 with G27C, A29U, C54A
# B24: target 2 MT 5'PFS AUU 3'PFS UUC (mixed)
# RNA 1: B4 RNA 1
# RNA 2: B4 RNA 2 with G27A, A28U, A29U, G53U
# B25: target 2 MT 5'PFS AAG 3'PFS AAC (mixed)
# RNA 1: B4 RNA 1
# RNA 2: B4 RNA 2 with G27A, A29G, U52A, G53A
# B26: target 2 MT 5'PFS CCC 3'PFS UCC (mixed)
# RNA 1: B4 RNA 1
# RNA 2: B4 RNA 2 with G27C, A28C, A29C, G53C
# B27: target 2 MT 5'PFS AGA 3'PFS UUG (mixed)
# RNA 1: B4 RNA 1
# RNA 2: B4 RNA 2 with G27A, A28G, G53U, C54G
# B28: target 2 MT 5'PFS AUC 3'PFS CGA (mixed)
# RNA 1: B4 RNA 1
# RNA 2: B4 RNA 2 with G27A, A28U, A29C, U52C, C54A
# B29: target 2 MT 5'PFS CCA 3'PFS CCU (mixed)
# RNA 1: B4 RNA 1
# RNA 2: B4 RNA 2 with G27C, A28C, U52C, G53C, C54U
# B30: target 2 MT 5'PFS CUC 3'PFS UCG (mixed)
# RNA 1: B4 RNA 1
# RNA 2: B4 RNA 2 with G27C, A28U, A29C, G53C, C54G
# B31: target 2 MT 5'PFS GGC 3'PFS UGA (mixed)
# RNA 1: B4 RNA 1
# RNA 2: B4 RNA 2 with A28G, A29C, C54A
# B32: target 2 MT 5'PFS CAU 3'PFS UGU (mixed)
# RNA 1: B4 RNA 1
# RNA 2: B4 RNA 2 with G27C, A29U, C54U
# B33: target 2 MT 5'PFS GUC 3'PFS UUC (mixed)
# RNA 1: B4 RNA 1
# RNA 2: B4 RNA 2 with A28U, A29C, G53U
# B34: target 2 MT 5'PFS GUC 3'PFS UUA (mixed)
# RNA 1: B4 RNA 1
# RNA 2: B4 RNA 2 with A28U, A29C, G53U, C54A
# B35: target 2 MT 5'PFS AGA 3'PFS UUA (mixed)
# RNA 1: B4 RNA 1
# RNA 2: B4 RNA 2 with G27A, A28G, G53U, C54A
# B36: target 2 MT 5'PFS GCU 3'PFS UCC (mixed)
# RNA 1: B4 RNA 1
# RNA 2: B4 RNA 2 with A28C, A29U, G53C
# B37: target 2 MT 5'PFS AGU 3'PFS CUU (mixed)
# RNA 1: B4 RNA 1
# RNA 2: B4 RNA 2 with G27A, A28G, A29U, U52C, G53U, C54U
# B38: target 2 MT 5'PFS GCU 3'PFS UCU (mixed)
# RNA 1: B4 RNA 1
# RNA 2: B4 RNA 2 with A28C, A29U, G53C, C54U
# Biological target: T1, EsCas13d, nuclease-dead
# Test: crRNA (strand 1, pre-loaded); Mg2+; 40 mM Tris-HCl pH 7.5, 150 mM NaCl, 6 mM MgCl2, 1 mM DTT, 0.1% Tween-20, 0.2 mg/ml BSA; 25 C; 10 min per concentration, then washed
# Details: tags: His6-TwinStrep-SUMO cleaved; N-terminal SNAP kept (SNAP-Surface 488); label: 3' end held by stalled T7 RNA polymerase
row,Binder,Kd
1,B1,8.6 ± 1 nM
2,B2,10.5 ± 1.2 nM
3,B3,7.5 ± 0.5 nM
4,B4,13.2 ± 2.6 nM
5,B5,18 ± 4 nM
6,B6,27.8 ± 3.5 nM
7,B7,58 ± 15 nM
8,B8,22 ± 5 nM
9,B9,13.2 ± 2.6 nM
10,B10,13.5 ± 2.1 nM
11,B11,55 ± 16 nM
12,B12,~50 nM
13,B13,24 ± 2.7 nM
14,B14,7.8 ± 0.8 nM
15,B15,11.4 ± 1.5 nM
16,B16,36 ± 6 nM
17,B17,20.9 ± 3.3 nM
18,B18,3.1 ± 0.5 nM
19,B19,9.5 ± 2.1 nM

row,Binder,Kd
1,B20,15.9 ± 2.4 nM
2,B21,18 ± 5 nM
3,B22,37 ± 7 nM
4,B23,4.5 ± 1.4 nM
5,B24,23 ± 5 nM
6,B25,3.1 ± 1 nM
7,B26,2.1 ± 0.5 nM
8,B27,6.1 ± 1 nM
9,B28,61 ± 20 nM
10,B29,4.9 ± 0.6 nM
11,B30,4 ± 0.8 nM
12,B31,18 ± 4 nM
13,B32,4.4 ± 0.5 nM
14,B33,~47 nM
15,B34,31 ± 6 nM
16,B35,11.7 ± 2.2 nM
17,B36,40 ± 8 nM
18,B37,24 ± 8 nM
19,B38,34 ± 11 nM
